What all share (assay type): cell-based, mouse
Experiment [1] concerns bone marrow-derived macrophages of C57BL/6 and C3H/HeN mice. Put plainly: TNFα production by bone marrow-derived macrophages with wild-type Tlr4 (sandwich ELISA). A general note: ELISA stands for enzyme-linked immunosorbent assay.
Experiment [2] deals with bone marrow-derived macrophages of C3H/HeJ mice (mutant Toll-like receptor 4). The experiment in a line: TNFα production by bone marrow-derived macrophages with mutant Tlr4 (sandwich ELISA).
Experiment [3] deals with bone marrow-derived macrophages of C57BL/6 and C3H/HeN mice. Put plainly: NO (nitrite) production by bone marrow-derived macrophages with wild-type Tlr4 (Griess reaction). The conditions noted are these: 24 h.
The test system of experiment [4] is bone marrow-derived macrophages of C3H/HeJ mice (mutant Toll-like receptor 4). Put plainly: NO (nitrite) production by bone marrow-derived macrophages with mutant Tlr4 (Griess reaction).

The source of these data is patent publication US20040022777A1, “Fragments and antagonists of heat shock protein 60” (priority 1999, published 2004).

B1: hsp60: Recombinant human hsp60 obtained from StressGen Biotechnologies (protein)
chain: AKDVKFGADARALMLQGVDLLADAVAVTMGPKGRTVIIEQSWGSPKVTKDGVTVAKSIDLKDKYKNIGAKLVQDVANNTNEEAGDGTTTATVLARSIAKEGFEKISKGANPVEIRRGVMLAVDAVIAELKKQSKPVTTPEEIAQVATISANGDKEIGNIISDAMKKVGRKGVITVKDGKTLNDELEIIEGMKFDRGYISPYFINTSKGQKCEFQDAYVLLSEKKISSIQSIVPALEIANAHRKPLVIIAEDVDGEALSTLVLNRLKVGLQVVAVKAPGFGDNRKNQLKDMAIATGGAVFGEEGLTLNLEDVQPHDLGKVGEVIVTKDDAMLLKGKGDKAQIEKRIQEIIEQLDVTTSEYEKEKLNERLAKLSDGVAVLKVGGTSDVEVNEKKDRVTDALNATRAAVEEGIVLGGGCALLRCIPALDSLTPANEDQKIGIEIIKRTLKIPAMTIAKNAGVEGSLIVEKIMQSSSEVGYDAMAGDFVNMVEKGIIDPTKVVRTALLDAAGVASLLTTAEVVVTEIPKEEKDPGMGAMGGMGGGMGGGMF
In the case of B1, the “time of peak levels of secreted TNFα” value in experiment [1] (C3H/HeN macrophages, 10 μg/ml hsp60) was 6 to 12 h. Moreover, in experiment [1] (C57BL/6 and C3H/HeN macrophages, LPS 10 ng/ml, hsp60 10 μg/ml, 6 h), the TNFα secretion entry was “rapid secretion of large amounts of TNFα”. For the same molecule, the TNFα response result in experiment [2] (C3H/HeJ macrophages, LPS 10 ng/ml, hsp60 10 μg/ml, oligonucleotides 30 μg/ml, 6 h) was “no response”. In experiment [2] (C3H/HeJ macrophages, even at ten times higher hsp60 levels, 6 h), the “TNFα response, dose dependence” value was “no such response”. The “TNFα production, time course” value in experiment [2] (Tlr4 defective macrophages, 10 μg/ml hsp60, observation period of 72 h) is listed as “absent”. For the same molecule, the “hsp60 concentration required for eliciting NO” value in experiment [3] was 3 µg/mL. For the same molecule, the “nitrite levels on increasing the hsp60 concentration tenfold” value in experiment [3] (C3H/HeN macrophages) is “about five times higher nitrite levels”. For the same molecule, the NO production result in experiment [3] (C57BL/6 and C3H/HeN macrophages, LPS 10 ng/ml, hsp60 10 μg/ml) is recorded as “same outcome”; in experiment [4] (C3H/HeJ (Tlr4 defective) macrophages, LPS 10 ng/ml, hsp60 10 μg/ml, 24 h), “complete lack of a nitric oxide response”. Besides, the “NO production, time course” value in experiment [4] (C3H/HeJ macrophages, 10 μg/ml hsp60, up to 72 h) is recorded as “no indication of NO production”. For the same molecule, the “NO response on increasing the hsp60 concentration tenfold” value in experiment [4] (Tlr4 defective macrophages, 24 h) is given as “completely refractory”.
